Reference: patent publication US7524498
Values joined by “and” are separate entries in the source; they are usually repeats but may differ in a detail not shown here. Identical values can stand only once. Like-named read-outs stand apart in the source and are kept apart here.

B1: humanized BATRHC/BATRκD γ1 mAb (antibody, V domains shown)
VH: QVQLVQSGSELKKPGASVKISCKASGYTFTNYGMNWVRQAPGQGLQWMGWINTDSGESTYAEEFKGRFVFSLDTSVNTAYLQITSLTAEDTGMYFCVRVGYDALDYWGQGTLVTVSS
VL: EIVLTQSPSSLSASVGDRVTITCSARSSVSYMHWFQQKPGKAPKLWIYRTSNLASGVPSRFSGSGSGTSYCLTINSLQPEDFATYYCQQRSSFPLTFGGGTKLEIK

Legend:
[1] = biological target: BAT-1 antigen (human); test: flow cytometry on human PBL of a selected normal donor, hBAT+ CD4+ cells
[2] = biological target: BAT-1 antigen (human); test: flow cytometry on non-adherent PBL of a normal donor, within CD20+ B cells
[3] = biological target: BAT-1 antigen (human)
[4] = biological target: BAT-1 antigen (human); test: flow cytometry on non-adherent PBL of a normal donor
[5] = biological target: BAT-1 antigen (human); test: flow cytometry on PBL of a prostate cancer patient, CD8+ cells
[6] = biological target: BAT-1 antigen (human); test: flow cytometry on human PBL of a selected normal donor, hBAT+ CD8+ cells
[7] = biological target: BAT-1 antigen (human); test: flow cytometry on human PBL of normal donors, 4° C. 1 hr, gated lymphocytes
[8] = biological target: BAT-1 antigen (human); test: flow cytometry on PBL of a prostate cancer patient, CD4+ cells
[9] = biological target: BAT-1 antigen (human); test: flow cytometry on non-adherent PBL of a normal donor, within CD19+ B cells
[10] = biological target: BAT-1 antigen (human); test: flow cytometry on non-activated human CD4+ T cells
[11] = biological target: BAT-1 antigen (human); test: flow cytometry on PBL of a prostate cancer patient, B cells
[12] = biological target: BAT-1 antigen (human); test: flow cytometry on human PBL of a selected normal donor, within CD8+ cells
[13] = biological target: BAT-1 antigen (human); remark: listed apart in the source
[14] = biological target: BAT-1 antigen (human); test: flow cytometry on human PBL of a selected normal donor
[15] = biological target: BAT-1 antigen (human); test: flow cytometry on human PBL of a selected normal donor, within CD4+ cells
[16] = biological target: BAT-1 antigen (human); remark: listed apart in the source

Molecule | % of PBL positive (CD4+ cells) [1] [%] | % of CD20+ cells positive [2] [%] | IC50 [3] [µg/mL] | % of lymphocytes positive [4] | % of CD8+ cells bound [5] [%] | % of PBL positive (CD8+ cells) [6] [%] | % of cells binding [7] [%] | % of CD4+ cells bound [8] [%] | % of CD19+ cells positive [9] [%] | % of CD4+ cells binding [10] | % of B cells bound [11] [%] | % of CD8+ cells binding [12] [%] | % of CD4+ cells binding [13] | % of cells positive [14] [%] | % of CD4+ cells binding [15] [%] | Signal Strength [16]
humanized BATRHC/BATRκD γ1 mAb (antibody) | 25 | 70 | 10 | 25% and 29% | 60 | 15 | 20 | 39 | 75 | 17% and 20% | 68 | – | – | – | – | –
B1 | – | – | – | – | – | – | – | – | – | – | – | 71 | 52% and 77% | 50 | 58 | 0
